In data set [1] the test system is CBC (HapB/HapC/HapE core CCAAT-binding complex) (Aspergillus fumigatus). As to the kind of experiment: SPR. The following applies: SPR Biacore T200, 25 C; 10 mM phosphate pH 7.4, 2.7 mM KCl, 137 mM NaCl, 1 mM DTT, 0.005% surfactant P20, 10 ug/ml poly(dI-dC); biotin-DNA on streptavidin CM3 ….
In data set [2] the target is CBC (HapB/HapC/HapE core CCAAT-binding complex);HapX(24-158) (Aspergillus fumigatus;Aspergillus fumigatus) (UniProt Q4WER3). The data set can be described thus: SPR. The note with it: SPR Biacore T200, 25 C; 10 mM phosphate pH 7.4, 2.7 mM KCl, 137 mM NaCl, 1 mM DTT, 0.005% surfactant P20, 10 ug/ml poly(dI-dC); biotin-DNA on streptavidin CM3 ….
Data set [3] concerns the target Aspergillus fumigatus core CCAAT-binding complex (HapB(230–299), HapC(40–137), HapE(47–164)) (Aspergillus fumigatus). As to the kind of experiment: SPR; Biacore T200, 25°C; biotinylated 37-bp cccA promoter duplex (full motif) on streptavidin-coated CM3 chip; CBC injected, HapX(24–158) co-injected on preformed binary CBC/DNA complexes in the steady-state phase; 10 mM phosphate pH 7.4, 2.7 mM KCl, 137 mM NaCl, 1 mM DTT, 0.005% P20, 10 μg/ml poly(dI-dC); 1:1 model with mass transport term.

On to “AAATCCACCAATCAACGCCTCCGTGATTGTCAGCAAT (double strand) [cccAp-369-37]”, for which the Kd in data set [1] worked out at 0.7 nM; in data set [2] it was 1.97 nM.

In data set [3], “Aspergillus fumigatus HapX(24–158) (from UniProt Q4WER3 24-158) (domain or fragment)” gave a KD on CBC-coated DNA (preformed CBC/DNA complex, 37-bp cccA promoter duplex) of 1.97 nM and a stoichiometry N (HapX chains per CBC) of 2.

The values are drawn from publication PMC4232046.
